Measurements: patent US20100172907A1 (Hoffmann-La Roche, published 2010)

Assays:
human Aβ (1-40) peptide = molecular target: T1, human Aβ (1-40) peptide (human); test: SPR, immobilized fibers;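 further: biacore SPR using in vitro grown Aβ1-40 or Aβ1-42 fibrils immobilized on the chip with Fab analytes, KD from koff/kon fits or equilibrium isotherms based on total Fab concentration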
T1 construct: also called Aβ1-40 fibers
Experimental: (§1) Biacore2000 and Biacore3000 instruments were used for these measurements. Aβ1-40 and Aβ1-42 fibers were generated in vitro by incubation of synthetic peptides at a concentration of 200 μg/ml in 10 mM Na-acetate buffer (pH 4.0) for three days at 37° C. […] For binders with slow kinetics KD values were calculated by curve fitting of the time-dependent sensor responses, i.e. from the ratio of koff/kₒₙ. Binders with fast kinetics were analyzed by fitting the concentration-dependent sensor responses at equilibrium (adsorption-isotherms). KD values were calculated from the Biacore sensograms based on the total Fab concentration as determined by a protein assay. […] Briefly, time-dependent protein binding to Aβ1-40 fibers immobilized on the Biacore chip was measured during the association phase under mass-limited conditions at different flow rates of the analyte solution.

Aβ (1-42) peptide = molecular target: T2, Aβ (1-42) peptide (human); test: SPR, immobilized fibers;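 further: biacore SPR using in vitro grown Aβ1-40 or Aβ1-42 fibrils immobilized on the chip with Fab analytes, KD from koff/kon fits or equilibrium isotherms based on total Fab concentration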
T2 construct: also called Aβ1-42 fibers; Aβ4
Experimental: as §1

| Binder | Kd (human Aβ (1-40) peptide) [nM] | Kd (Aβ (1-42) peptide) [nM] |
| --- | --- | --- |
| MS-Roche #7.2.H6 Fab (Fab, V domains shown) VH: QVQLVESGGGLVQPGGSLRLSCAASGFTFSSYAMSWVRQAPGKGLEWVSAINARGNRTYYADSVKGRFTISRDNSKNTLYLQMNSLRAEDTAVYYCARGKGNTHKPYGYVRYFDVWGQGTLVTVSS VL: DIVLTQSPATLSLSPGERATLSCRASQSVSSSYLAWYQQKPGQAPRLLIYGASSRATGVPARFSGSGSGTDFTLTISSLEPEDFATYYCQQIYSFPHTFGQGTKVEIKR | 1 |  |
| MS-Roche #7.2.H7 Fab (Fab, V domains shown) VH: QVQLVESGGGLVQPGGSLRLSCAASGFTFSSYAMSWVRQAPGKGLEWVSAINSRGSDTHYADSVKGRFTISRDNSKNTLYLQMNSLRAEDTAVYYCARGKGNTHKPYGYVRYFDVWGQGTLVTVSS VL: DIVLTQSPATLSLSPGERATLSCRASQSVSSSYLAWYQQKPGQAPRLLIYGASSRATGVPARFSGSGSGTDFTLTISSLEPEDFATYYCQQIYSFPHTFGQGTKVEIKR | 15.5 | 8.1 |
| MS-Roche #7.2.H8 Fab (Fab, V domains shown) VH: QVQLVESGGGLVQPGGSLRLSCAASGFTFSSYAMSWVRQAPGKGLEWVSAINASGHKTYYADSVKGRFTISRDNSKNTLYLQMNSLRAEDTAVYYCARGKGNTHKPYGYVRYFDVWGQGTLVTVSS VL: DIVLTQSPATLSLSPGERATLSCRASQSVSSSYLAWYQQKPGQAPRLLIYGASSRATGVPARFSGSGSGTDFTLTISSLEPEDFATYYCQQIYSFPHTFGQGTKVEIKR | 1.5 | 2.1 |
| MS-Roche #7.2.L2 Fab (Fab, V domains shown) VH: not shown VL: DIVLTQSPATLSLSPGERATLSCRASQYISFRYLAWYQQKPGQAPRLLIYGASSRATGVPARFSGSGSGTDFTLTISSLEPEDFATYYCQQIYSFPHTFGQGTKVEIKR | 5.6 | 4 |
| MS-Roche #7.2.L4 Fab (Fab, V domains shown) VH: not shown VL: DIVLTQSPATLSLSPGERATLSCRASQFIRRSYLAWYQQKPGQAPRLLIYGASSRATGVPARFSGSGSGTDFTLTISSLEPEDFATYYCQQIYSFPHTFGQGTKVEIKR | 1.1 | 1.1 |
| MS-Roche #7.3.H1 Fab (Fab, V domains shown) VH: QVQLVESGGGLVQPGGSLRLSCAASGFTFSSYAMSWVRQAPGKGLEWVSAISAISNKTYYADSVKGRFTISRDNSKNTLYLQMNSLRAEDTAVYYCARGKGNTHKPYGYVRYFDVWGQGTLVTVSS VL: not shown | 8 | 11.2 |
| MS-Roche #7.3.L1 Fab (Fab, V domains shown) VH: not shown VL: DIVLTQSPATLSLSPGERATLSCRASQYLHYGYLAWYQQKPGQAPRLLIYGASSRATGVPARFSGSGSGTDFTLTISSLEPEDFAVYYCHQVYSHPFTFGQGTKVEIKR | 4.5 | 6 |
| MS-Roche #7.9.H5 Fab (Fab, V domains shown, assembled) VH: QVQLVESGGGLVQPGGSLRLSCAASGFTFSSYAMSWVRQAPGKGLEWVSAINHAGNKKYYADSVKGRFTISRDNSKNTLYLQMNSLRAEDTAVYYCARGKGNTHKPYGYVRYFDVWGQGTLVTVSS VL: DIVLTQSPATLSLSPGERATLSCRASQSVSSSYLAWYQQKPGQAPRLLIYGASSRATGVPARFSGSGSGTDFTLTISSLEPEDFATYYCLQIYNMPITFGQGTKVEIKR | 1.7 | 1.8 |
| MS-Roche #7.9.H7 Fab (Fab, V domains shown, also called MSR 7.9H7) VH: QVQLVESGGGLVQPGGSLRLSCAASGFTFSSYAMSWVRQAPGKGLEWVSAINASGTRTYYADSVKGRFTISRDNSKNTLYLQMNSLRAEDTAVYYCARGKGNTHKPYGYVRYFDVWGQGTLVTVSS VL: DIVLTQSPATLSLSPGERATLSCRASQSVSSSYLAWYQQKPGQAPRLLIYGASSRATGVPARFSGSGSGTDFTLTISSLEPEDFATYYCLQIYNMPITFGQGTKVEIKR | 1 | 0.9 |
| MS-Roche #7.9.H8 Fab (Fab, V domains shown, assembled) VH: QVQLVESGGGLVQPGGSLRLSCAASGFTFSSYAMSWVRQAPGKGLEWVSAINASGSKIYYADSVKGRFTISRDNSKNTLYLQMNSLRAEDTAVYYCARGKGNTHKPYGYVRYFDVWGQGTLVTVSS VL: DIVLTQSPATLSLSPGERATLSCRASQSVSSSYLAWYQQKPGQAPRLLIYGASSRATGVPARFSGSGSGTDFTLTISSLEPEDFATYYCLQIYNMPITFGQGTKVEIKR | 0.8 | 0.7 |
| MS-Roche #7.9.H9 Fab (Fab, V domains shown, assembled) VH: QVQLVESGGGLVQPGGSLRLSCAASGFTFSSYAMSWVRQAPGKGLEWVSAINGKGNKKYYADSVKGRFTISRDNSKNTLYLQMNSLRAEDTAVYYCARGKGNTHKPYGYVRYFDVWGQGTLVTVSS VL: DIVLTQSPATLSLSPGERATLSCRASQSVSSSYLAWYQQKPGQAPRLLIYGASSRATGVPARFSGSGSGTDFTLTISSLEPEDFATYYCLQIYNMPITFGQGTKVEIKR | 0.9 | 0.9 |
| MS-Roche #7.9.L1 Fab (Fab, V domains shown) VH: not shown VL: DIVLTQSPATLSLSPGERATLSCRASQRLSPRYLAWYQQKPGQAPRLLIYGASSRATGVPARFSGSGSGTDFTLTISSLEPEDFATYYCLQIYNMPITFGQGTKVEIKR | 1 | 1.1 |
| MS-Roche #7.9.L2 Fab (Fab, V domains shown) VH: not shown VL: DIVLTQSPATLSLSPGERATLSCRASQYLHKRYLAWYQQKPGQAPRLLIYGASSRATGVPARFSGSGSGTDFTLTISSLEPEDFATYYCLQIYNMPITFGQGTKVEIKR | 1 | 0.5 |
| MS-Roche #7.11.H3 Fab (Fab, V domains shown) VH: QVQLVESGGGLVQPGGSLRLSCAASGFTFSSYAMSWVRQAPGKGLEWVSGINANGNRTYYADSVKGRFTISRDNSKNTLYLQMNSLRAEDTAVYYCARGKGNTHKPYGYVRYFDVWGQGTLVTVSS VL: DIVLTQSPATLSLSPGERATLSCRASQSVSSSYLAWYQQKPGQAPRLLIYGASSRATGVPARFSGSGSGTDFTLTISSLEPEDFATYYCQQVYSPPHTFGQGTKVEIKR | 6.6 | 4.4 |
| MS-Roche #7.11.H4 Fab (Fab, V domains shown) VH: QVQLVESGGGLVQPGGSLRLSCAASGFTFSSYAMSWVRQAPGKGLEWVSAINANGYKTYYADSVKGRFTISRDNSKNTLYLQMNSLRAEDTAVYYCARGKGNTHKPYGYVRYFDVWGQGTLVTVSS VL: DIVLTQSPATLSLSPGERATLSCRASQSVSSSYLAWYQQKPGQAPRLLIYGASSRATGVPARFSGSGSGTDFTLTISSLEPEDFATYYCQQVYSPPHTFGQGTKVEIKR | 1 | 1.7 |
| MS-Roche #7.11.H5 Fab (Fab, V domains shown) VH: QVQLVESGGGLVQPGGSLRLSCAASGFTFSSYAMSWVRQAPGKGLEWVSAINAHGQRTYYADSVKGRFTISRDNSKNTLYLQMNSLRAEDTAVYYCARGKGNTHKPYGYVRYFDVWGQGTLVTVSS VL: DIVLTQSPATLSLSPGERATLSCRASQSVSSSYLAWYQQKPGQAPRLLIYGASSRATGVPARFSGSGSGTDFTLTISSLEPEDFATYYCQQVYSPPHTFGQGTKVEIKR | 3.4 | 1.7 |
| MS-Roche #7.11.L1 Fab (Fab, V domains shown) VH: not shown VL: DIVLTQSPATLSLSPGERATLSCRASQRILRIYLAWYQQKPGQAPRLLIYGASSRATGVPARFSGSGSGTDFTLTISSLEPEDFATYYCQQVYSPPHTFGQGTKVEIKR | 1.1 | 1.2 |
| MS-Roche #7.12.H1 Fab (Fab, V domains shown) VH: QVQLVESGGGLVQPGGSLRLSCAASGFTFSSYGMSWVRQAPGKGLEWVSNINGNGNRKYYADSVKGRFTISRDNSKNTLYLQMNSLRAEDTAVYYCARGKGNTHKPYGYVRYFDVWGQGTLVTVSS VL: DIVLTQSPATLSLSPGERATLSCRASQYVFRRYLAWYQQKPGQAPRLLISGSSNRATGVPARFSGSGSGTDFTLTISSLEPEDFAVYYCLQLYNIPNTFGQGTKVEIKR | 0.6 | 0.8 |
| MS-Roche #7.12.L2 Fab (Fab, V domains shown) VH: QVQLVESGGGLVQPGGSLRLSCAASGFTFSSYGMSWVRQAPGKGLEWVSNISGSGSSTYYADSVKGRFTISRDNSKNTLYLQMNSLRAEDTAVYYCARGKGNTHKPYGYVRYFDVWGQGTLVTVSS VL: DIVLTQSPATLSLSPGERATLSCRASQRFFYKYLAWYQQKPGQAPRLLISGSSNRATGVPARFSGSGSGTDFTLTISSLEPEDFAVYYCLQLYNIPNTFGQGTKVEIKR | 4 | 5.4 |
| MS-Roche #7.12.L3 Fab (Fab, V domains shown) VH: QVQLVESGGGLVQPGGSLRLSCAASGFTFSSYGMSWVRQAPGKGLEWVSNISGSGSSTYYADSVKGRFTISRDNSKNTLYLQMNSLRAEDTAVYYCARGKGNTHKPYGYVRYFDVWGQGTLVTVSS VL: DIVLTQSPATLSLSPGERATLSCRASQFVRRGFLAWYQQKPGQAPRLLISGSSNRATGVPARFSGSGSGTDFTLTISSLEPEDFAVYYCLQLYNIPNTFGQGTKVEIKR | 0.8 | 0.9 |
| MS-Roche #7.12.L4 Fab (Fab, V domains shown) VH: QVQLVESGGGLVQPGGSLRLSCAASGFTFSSYGMSWVRQAPGKGLEWVSNISGSGSSTYYADSVKGRFTISRDNSKNTLYLQMNSLRAEDTAVYYCARGKGNTHKPYGYVRYFDVWGQGTLVTVSS VL: DIVLTQSPATLSLSPGERATLSCRASQRLKRSYLAWYQQKPGQAPRLLISGSSNRATGVPARFSGSGSGTDFTLTISSLEPEDFAVYYCLQLYNIPNTFGQGTKVEIKR | 2 | 0.6 |
| MS-Roche #8.2.H4 Fab (Fab, V domains shown, H-CDR2 printed with 16 residues) VH: QVQLVESGGGLVQPGGSLRLSCAASGFTFSSYAMSWVRQAPGKGLEWVSATSVKGKTYYADSVKGRFTISRDNSKNTLYLQMNSLRAEDTAVYYCARLLSRGYNGYYHKFDVWGQGTLVTVSS VL: not shown | 12.1 | 11.9 |
| MS-Roche #3.4.H13 Fab (Fab, V domains shown) VH: QVQLVESGGGLVQPGGSLRLSCAASGFTFSSYAMSWVRQAPGKGLEWVSAISEQGRNIYYADSVKGRFTISRDNSKNTLYLQMNSLRAEDTAVYYCARLTHYARYYRYFDVWGQGTLVTVSS VL: not shown | 32.3 | 18.8 |
| MS-Roche #3.4.H14 Fab (Fab, V domains shown) VH: QVQLVESGGGLVQPGGSLRLSCAASGFTFSSYAMSWVRQAPGKGLEWVSAISESGQYKYYADSVKGRFTISRDNSKNTLYLQMNSLRAEDTAVYYCARLTHYARYYRYFDVWGQGTLVTVSS VL: not shown | 13.3 | 16.8 |
